Experimental data published in publication PMC2908215 (Human mutation, 2010).

Molecular target: T1, MLH1 p.Tyr750X (human, UniProt P40692 1-749)
T1 sequence (looked up): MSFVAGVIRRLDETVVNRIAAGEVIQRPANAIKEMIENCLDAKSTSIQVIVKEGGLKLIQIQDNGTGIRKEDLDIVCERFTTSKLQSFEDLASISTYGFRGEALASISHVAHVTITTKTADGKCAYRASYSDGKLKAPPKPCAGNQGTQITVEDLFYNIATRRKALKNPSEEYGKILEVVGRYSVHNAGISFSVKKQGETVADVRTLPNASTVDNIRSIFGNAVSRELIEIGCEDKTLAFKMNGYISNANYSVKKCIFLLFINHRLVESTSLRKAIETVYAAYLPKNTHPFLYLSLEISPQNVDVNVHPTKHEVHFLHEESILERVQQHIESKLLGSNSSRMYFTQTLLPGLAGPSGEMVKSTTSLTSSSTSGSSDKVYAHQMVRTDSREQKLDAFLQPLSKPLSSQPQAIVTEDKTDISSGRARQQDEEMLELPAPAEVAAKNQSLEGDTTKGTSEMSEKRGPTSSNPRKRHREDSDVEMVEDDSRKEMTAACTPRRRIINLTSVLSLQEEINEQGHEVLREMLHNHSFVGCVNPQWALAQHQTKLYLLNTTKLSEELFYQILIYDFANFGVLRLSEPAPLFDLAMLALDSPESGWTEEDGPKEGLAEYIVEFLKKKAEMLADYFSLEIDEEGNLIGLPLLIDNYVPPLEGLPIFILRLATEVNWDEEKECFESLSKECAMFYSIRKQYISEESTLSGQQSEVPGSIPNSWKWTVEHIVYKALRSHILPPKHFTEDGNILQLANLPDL
Assay: co-IP

B1: PMS2 (natural protein, UniProt P54278 1-862, looked up)
chain: MERAESSSTEPAKAIKPIDRKSVHQICSGQVVLSLSTAVKELVENSLDAGATNIDLKLKDYGVDLIEVSDNGCGVEEENFEGLTLKHHTSKIQEFADLTQVETFGFRGEALSSLCALSDVTISTCHASAKVGTRLMFDHNGKIIQKTPYPRPRGTTVSVQQLFSTLPVRHKEFQRNIKKEYAKMVQVLHAYCIISAGIRVSCTNQLGQGKRQPVVCTGGSPSIKENIGSVFGQKQLQSLIPFVQLPPSDSVCEEYGLSCSDALHNLFYISGFISQCTHGVGRSSTDRQFFFINRRPCDPAKVCRLVNEVYHMYNRHQYPFVVLNISVDSECVDINVTPDKRQILLQEEKLLLAVLKTSLIGMFDSDVNKLNVSQQPLLDVEGNLIKMHAADLEKPMVEKQDQSPSLRTGEEKKDVSISRLREAFSLRHTTENKPHSPKTPEPRRSPLGQKRGMLSSSTSGAISDKGVLRPQKEAVSSSHGPSDPTDRAEVEKDSGHGSTSVDSEGFSIPDTGSHCSSEYAASSPGDRGSQEHVDSQEKAPKTDDSFSDVDCHSNQEDTGCKFRVLPQPTNLATPNTKRFKKEEILSSSDICQKLVNTQDMSASQVDVAVKINKKVVPLDFSMSSLAKRIKQLHHEAQQSEGEQNYRKFRAKICPGENQAAEDELRKEISKTMFAEMEIIGQFNLGFIITKLNEDIFIVDQHATDEKYNFEMLQQHTVLQGQRLIAPQTLNLTAVNEAVLIENLEIFRKNGFDFVIDENAPVTERAKLISLPTSKNWTFGPQDVDELIFMLSDSPGVMCRPSRVKQMFASRACRKSVMIGTALNTSEMKKLITHMGEMDHPWNCPHGRPTMRHIANLGVISQN
co-precipitated PMS2 in relation to wild-type: 23 % of wild-type
